Measured values published in paper PMC8391806 (2021).

Target: p38α kinase (residues 1–360 of human p38α) (human, UniProt Q16539 1-360)
Test: ITC

Chain of p38α kinase (residues 1–360 of human p38α) (Q16539 whole entry, the tested form may be a part): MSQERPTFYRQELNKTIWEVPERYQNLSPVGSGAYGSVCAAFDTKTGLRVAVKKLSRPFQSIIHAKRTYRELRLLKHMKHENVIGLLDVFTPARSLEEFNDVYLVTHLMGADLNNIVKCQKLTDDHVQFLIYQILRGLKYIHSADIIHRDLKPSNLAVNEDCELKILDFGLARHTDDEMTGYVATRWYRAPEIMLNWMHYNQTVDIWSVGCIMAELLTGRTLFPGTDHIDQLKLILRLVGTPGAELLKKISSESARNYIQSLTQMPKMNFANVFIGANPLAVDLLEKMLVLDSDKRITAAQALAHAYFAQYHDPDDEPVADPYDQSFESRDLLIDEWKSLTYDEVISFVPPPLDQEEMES

Kd: 4.1 µM
B1: regulatory domain of MKK4 (residues 12–86) with N-terminal thioredoxin and 6xHis tag, unlabeled, for ITC (domain or fragment)
chain: SGGGSGSGTPGPVGSPAPGHPAVSSMQGKRKALKLNFANPPFKSTARFTLNPNPTGVQNPHIERLRTHSIESSGK
